What was measured:
HLA-A*68:02 = assay: IEDB peptide-MHC binding, cellular MHC/competitive/fluorescence; ≥ and ≤ were set here for values at or beyond the usual limits of such assays
HLA-A*02:06 = assay: IEDB peptide-MHC binding, purified MHC/competitive/radioactivity; ≥ and ≤ were set here for values at or beyond the usual limits of such assays
HLA-A*02:02 = assay: as above
HLA-A*02:01 = assay: as above
HLA-A*02:03 = assay: as above
[1] = source organism: Hepacivirus hominis
[2] = source organism: Vaccinia virus WR

Row | Sequence | IC50 (HLA-A*68:02; [2]) [nM] | IC50 (HLA-A*02:06; [2]) [nM] | IC50 (HLA-A*02:02; [2]) [nM] | IC50 (HLA-A*02:01; [2]) [nM] | IC50 (HLA-A*02:03; [2]) [nM] | other results
1 | ALYGVWPLLL | – | – | – | – | – | IC50 (HLA-A*68:02; [1]): 20600 nM; IC50 (HLA-A*02:06; [1]): 166 nM; IC50 (HLA-A*02:02; [1]): 8.9 nM; IC50 (HLA-A*02:01; [1]): 9 nM; IC50 (HLA-A*02:03; [1]): 7.5 nM
2 | VMPEKRNVV | 6590 | 3290 | 1100 | 495 | 23 | –
3 | FLQISRVNDL | 7360 | 582 | 5.2 | 13 | 67 | –
4 | DLLFNEKLKV | 9970 | 2020 | 357 | 149 | 317 | –
5 | ILGIIITVGM | 38300 | 4710 | 288 | 1270 | 265 | –
6 | CLTVPNITI | 8000 | 1660 | 96 | 1190 | 75 | –
7 | LLSVGVGIYL | – | – | – | – | – | IC50 (HLA-A*68:02; [1]): 20100 nM; IC50 (HLA-A*02:06; [1]): 575 nM; IC50 (HLA-A*02:02; [1]): 12 nM; IC50 (HLA-A*02:01; [1]): 18 nM; IC50 (HLA-A*02:03; [1]): 568 nM
8 | IMEIVSHLRA | 19700 | 4410 | 955 | 1190 | 396 | –
9 | ALVSGTATA | – | – | – | – | – | IC50 (HLA-A*68:02; source organism: SARS-CoV1): 31300 nM; IC50 (HLA-A*02:06; source organism: SARS-CoV1): 269 nM; IC50 (HLA-A*02:02; source organism: SARS-CoV1): 4.6 nM; IC50 (HLA-A*02:01; source organism: SARS-CoV1): 134 nM; IC50 (HLA-A*02:03; source organism: SARS-CoV1): 8.1 nM
10 | VLQAGITRV | – | – | – | – | – | IC50 (HLA-A*68:02; [1]): 35600 nM; IC50 (HLA-A*02:06; [1]): 393 nM; IC50 (HLA-A*02:02; [1]): 98 nM; IC50 (HLA-A*02:01; [1]): 56 nM; IC50 (HLA-A*02:03; [1]): 12 nM
11 | GLDERFVEEL | 6180 | 2520 | 93 | 331 | 1210 | –
12 | FLLFLVLIML | – | – | – | – | – | IC50 (HLA-A*68:02; source organism: SARS-CoV1): 5940 nM; IC50 (HLA-A*02:06; source organism: SARS-CoV1): 2920 nM; IC50 (HLA-A*02:02; source organism: SARS-CoV1): 1570 nM; IC50 (HLA-A*02:01; source organism: SARS-CoV1): 140 nM; IC50 (HLA-A*02:03; source organism: SARS-CoV1): 1380 nM
13 | LQISRVNDL | ≥ 70000 | 229 | 90 | 1700 | 11 | –
14 | ILSNKLLYAA | 12000 | 150 | 8.1 | 51 | 1110 | –
15 | SQMETDFLEL | – | – | – | – | – | IC50 (HLA-A*68:02; source organism: SARS-CoV1): 20100 nM; IC50 (HLA-A*02:06; source organism: SARS-CoV1): 21 nM; IC50 (HLA-A*02:02; source organism: SARS-CoV1): 227 nM; IC50 (HLA-A*02:01; source organism: SARS-CoV1): 92 nM; IC50 (HLA-A*02:03; source organism: SARS-CoV1): 597 nM
16 | AVTLNRIKIA | 11000 | 2290 | 1720 | 1250 | 1290 | –
17 | KLPTWLGAA | ≥ 70000 | 9.4 | 499 | 207 | 8 | –
18 | SLDQTHIKTI | 7580 | 2460 | 1430 | 759 | 15 | –
19 | ILFQNNDINA | 9980 | 3180 | 23 | 549 | 407 | –
20 | ILDNLRCHSA | 12800 | 297 | 972 | 63 | 69 | –
21 | ALLSCIRNA | ≥ 70000 | 77 | 120 | 23 | 6.2 | –
22 | TLLGCWSFVL | – | – | – | – | – | IC50 (HLA-A*68:02; [1]): 26600 nM; IC50 (HLA-A*02:06; [1]): 250 nM; IC50 (HLA-A*02:02; [1]): 80 nM; IC50 (HLA-A*02:01; [1]): 17 nM; IC50 (HLA-A*02:03; [1]): 864 nM
23 | GLKIEEIEKV | ≥ 70000 | 198 | 15 | 65 | 6.6 | –
24 | SILSLETVKM | 11100 | 806 | 203 | 1310 | 455 | –
25 | SIKMIYDLNA | 5810 | 1030 | 852 | 1780 | 257 | –
26 | LLYFILFFVA | – | – | – | – | – | IC50 (HLA-A*68:02; [1]): ≥ 70000 nM; IC50 (HLA-A*02:06; [1]): 993 nM; IC50 (HLA-A*02:02; [1]): 3740 nM; IC50 (HLA-A*02:01; [1]): 1120 nM; IC50 (HLA-A*02:03; [1]): 4700 nM
27 | ALDCQIYGA | – | – | – | – | – | IC50 (HLA-A*68:02; [1]): ≥ 70000 nM; IC50 (HLA-A*02:06; [1]): 1200 nM; IC50 (HLA-A*02:02; [1]): 1590 nM; IC50 (HLA-A*02:01; [1]): 143 nM; IC50 (HLA-A*02:03; [1]): 1800 nM
28 | QIGGEAIFLI | ≥ 70000 | 15 | 8.2 | 383 | 0.2 | –
29 | LLLSTTEWQV | – | – | – | – | – | IC50 (HLA-A*68:02; [1]): 10100 nM; IC50 (HLA-A*02:06; [1]): 13 nM; IC50 (HLA-A*02:02; [1]): 18 nM; IC50 (HLA-A*02:01; [1]): 7.1 nM; IC50 (HLA-A*02:03; [1]): 101 nM

From the Immune Epitope Database (IEDB)
